In PMC4969796 (The Journal of General Physiology, 2016):

Biological target: the molecule itself
Experiment: SDS-PAGE

B1: L24C/R117C KcsA (before chymotrypsin) (natural protein)
chain: MPPMLSGLLARLVKLLLGRHGSACHWRAAGAATVLLVIVLLAGSYLAVLAERGAPGAQLITYPRALWWSVETATTVGYGDLYPVTLWGRLVAVVVMVAGITSFGLVTAALATWFVGCEQERRGHFVRHSEKAAEEAYTRTTRALHERFDRLERMLDDNRR
- stoichiometry N: 4
